Laboratory results reported in patent US20250250357A1 (NANJING ZAIMING PHARMACEUTICAL, published 2025).
One block for each binder: values may come before it.

Experiments:
[1] = molecular target: T1, human MSLN-R1-his protein (human, UniProt Q13421 296-390); assay: ELISA, coated antigen; no antibody (blank, column 'none')
T1 construct: also called human MSLN-R1 protein; hMSLN-R1-his; not shown: His tag

[2] = molecular target: T2, human MSLN-FL-his protein (human, UniProt Q13421 296-580); assay: ELISA, coated antigen; antibody 100 nM
T2 construct: also called human MSLN full-length protein; hMSLN-FL-his; not shown: His tag

[3] = molecular target: T3, human MSLN-R2-his protein (human, UniProt Q13421 391-486); assay: ELISA, coated antigen; no antibody (blank, column 'none')
T3 construct: also called human MSLN-R2 protein; hMSLN-R2-his; not shown: His tag

[4] = molecular target: T2, human MSLN-FL-his protein; assay: ELISA, coated antigen; antibody 0.1 nM
[5] = molecular target: T1, human MSLN-R1-his protein; assay: ELISA, coated antigen; antibody 0.1 nM
[6] = molecular target: T1, human MSLN-R1-his protein; assay: ELISA, coated antigen; antibody 0.0001 nM
[7] = molecular target: T1, human MSLN-R1-his protein; assay: ELISA, coated antigen; antibody 0.01 nM
[8] = molecular target: T3, human MSLN-R2-his protein; assay: ELISA, coated antigen; antibody 0.001 nM
[9] = molecular target: T2, human MSLN-FL-his protein; assay: ELISA, coated antigen; no antibody (blank, column 'none')
[10] = molecular target: T1, human MSLN-R1-his protein; assay: ELISA, coated antigen; antibody 1 nM
[11] = molecular target: T2, human MSLN-FL-his protein; assay: ELISA, coated antigen; antibody 1 nM
[12] = molecular target: T3, human MSLN-R2-his protein; assay: ELISA, coated antigen; antibody 0.01 nM
[13] = molecular target: T1, human MSLN-R1-his protein; assay: ELISA, coated antigen; antibody 100 nM
[14] = molecular target: T3, human MSLN-R2-his protein; assay: ELISA, coated antigen; antibody 1 nM
[15] = molecular target: T3, human MSLN-R2-his protein; assay: ELISA, coated antigen; antibody 10 nM
[16] = molecular target: T2, human MSLN-FL-his protein; assay: ELISA, coated antigen; antibody 10 nM
[17] = molecular target: T1, human MSLN-R1-his protein; assay: ELISA, coated antigen; antibody 10 nM
[18] = molecular target: T2, human MSLN-FL-his protein; assay: ELISA, coated antigen; antibody 0.001 nM
[19] = molecular target: T2, human MSLN-FL-his protein; assay: ELISA, coated antigen; antibody 0.0001 nM
[20] = molecular target: T2, human MSLN-FL-his protein; assay: ELISA, coated antigen; antibody 0.01 nM
[21] = molecular target: T3, human MSLN-R2-his protein; assay: ELISA, coated antigen; antibody 0.0001 nM
[22] = molecular target: T3, human MSLN-R2-his protein; assay: ELISA, coated antigen; antibody 0.1 nM
[23] = molecular target: T1, human MSLN-R1-his protein; assay: ELISA, coated antigen; antibody 0.001 nM
[24] = molecular target: T3, human MSLN-R2-his protein; assay: ELISA, coated antigen; antibody 100 nM
[25] = molecular target: human MSLN on OVCAR3 tumor cells (human, UniProt Q13421 296-598); assay: FACS, OVCAR3 cells
[26] = molecular target: T4, monkey MSLN on HEK293T-monkey MSLN recombinant cells (monkey); assay: FACS, HEK293T-monkey MSLN cells
T4 construct: Full-length precursor as transfected; processing on the cell is not described; also called HEK293-monkey MSLN
T4 chain: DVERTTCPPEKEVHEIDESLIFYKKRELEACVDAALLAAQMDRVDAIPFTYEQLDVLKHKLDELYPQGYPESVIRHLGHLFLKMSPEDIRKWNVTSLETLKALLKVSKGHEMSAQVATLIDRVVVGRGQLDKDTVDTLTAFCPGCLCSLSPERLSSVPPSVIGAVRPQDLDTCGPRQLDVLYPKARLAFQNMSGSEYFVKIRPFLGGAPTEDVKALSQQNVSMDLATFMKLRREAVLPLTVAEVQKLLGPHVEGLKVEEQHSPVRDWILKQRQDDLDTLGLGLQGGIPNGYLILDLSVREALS

[27] = molecular target: T5, human MSLN-R3 on HEK293T-hMSLN-R3 recombinant cells (human, UniProt Q13421 487-606); assay: FACS, HEK293T-hMSLN-R3 cells
T5 construct: the C-terminal limit is uncertain; also called human MSLN-R3 membrane protein
T5 sequence (Q13421 495-614): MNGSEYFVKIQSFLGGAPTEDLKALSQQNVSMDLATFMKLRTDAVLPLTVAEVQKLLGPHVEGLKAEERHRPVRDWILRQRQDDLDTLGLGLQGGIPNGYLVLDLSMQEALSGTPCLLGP

T2 sequence (Q13421 other isoform, or with tags, fused parts or gaps): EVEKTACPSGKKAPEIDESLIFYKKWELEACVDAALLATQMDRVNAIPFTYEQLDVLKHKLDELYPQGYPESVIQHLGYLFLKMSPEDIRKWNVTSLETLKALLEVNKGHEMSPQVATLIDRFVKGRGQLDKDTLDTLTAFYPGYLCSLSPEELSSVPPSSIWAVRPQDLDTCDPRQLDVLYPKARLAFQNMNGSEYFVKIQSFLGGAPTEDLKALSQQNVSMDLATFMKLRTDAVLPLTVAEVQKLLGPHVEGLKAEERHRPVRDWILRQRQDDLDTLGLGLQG
T1 sequence (Q13421 other isoform, or with tags, fused parts or gaps): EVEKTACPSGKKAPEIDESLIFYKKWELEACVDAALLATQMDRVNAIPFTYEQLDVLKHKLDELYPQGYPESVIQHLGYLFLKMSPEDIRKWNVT
human MSLN on OVCAR3 tumor cells, sequence (Q13421 other isoform, or with tags, fused parts or gaps): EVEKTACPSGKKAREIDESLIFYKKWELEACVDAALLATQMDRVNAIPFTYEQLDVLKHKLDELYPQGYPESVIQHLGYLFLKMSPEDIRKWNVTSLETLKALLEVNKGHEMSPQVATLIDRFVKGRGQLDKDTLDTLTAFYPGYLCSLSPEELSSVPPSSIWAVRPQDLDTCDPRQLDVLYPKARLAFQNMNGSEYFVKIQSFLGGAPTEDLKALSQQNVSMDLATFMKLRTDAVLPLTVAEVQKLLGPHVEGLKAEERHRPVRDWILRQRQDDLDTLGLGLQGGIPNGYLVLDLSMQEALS
T3 sequence (Q13421 other isoform, or with tags, fused parts or gaps): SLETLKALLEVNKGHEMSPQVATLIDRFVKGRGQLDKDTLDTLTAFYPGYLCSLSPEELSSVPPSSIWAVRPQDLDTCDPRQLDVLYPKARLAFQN

OD450 [1]: 0.04 OD450 | OD450 [2]: 1.12 OD450 | OD450 [3]: 0.05 OD450 | OD450 [4]: 0.04 OD450 | OD450 [5]: 0.04 OD450 | OD450 [6]: 0.05 OD450 | OD450 [7]: 0.04 OD450 | OD450 [8]: 0.04 OD450 | OD450 [9]: 0.05 OD450 | OD450 [10]: 0.04 OD450 | OD450 [11]: 0.06 OD450 | OD450 [12]: 0.04 OD450 | OD450 [13]: 0.09 OD450 | OD450 [14]: 0.04 OD450 | OD450 [15]: 0.06 OD450 | OD450 [16]: 0.19 OD450 | OD450 [17]: 0.05 OD450 | OD450 [18]: 0.04 OD450 | OD450 [19]: 0.04 OD450 | OD450 [20]: 0.04 OD450 | OD450 [21]: 0.04 OD450 | OD450 [22]: 0.04 OD450 | OD450 [23]: 0.04 OD450 | OD450 [24]: 0.13 OD450
B2: S009-F5-9.16 (antibody, human IgG1, kappa, V domains shown)
VH: EVQLRQSGPVLVKPGASVKMSCKASGYTFTDYFMNWVKPSHGKSLEWIGVINPSNGVINYNQRFKGKATLTVDKSSSTAYMELNSLTSEDSAVYYCARSYDFAWFAYWGQGTLVTVSA
VL: DVLMTQTPLSLPVSLGDQASISCRSSQNIVHSNGNTYLEWYLQKPGQSPKLLIYTVSNRFSGVPDRFSGSGSGTDFTLKISRVEAEDLGVYYCFQGSHVPYTFGGGTKLEIKR
notes: Human-murine chimeric antibody, human IgG1/kappa constant regions

OD450 [1]: 0.04 OD450 | OD450 [2]: 2.83 OD450 | OD450 [3]: 0.05 OD450 | OD450 [4]: 2.4 OD450 | OD450 [5]: 0.04 OD450 | OD450 [6]: 0.04 OD450 | OD450 [7]: 0.04 OD450 | OD450 [8]: 0.04 OD450 | OD450 [9]: 0.05 OD450 | OD450 [10]: 0.04 OD450 | OD450 [11]: 2.87 OD450 | OD450 [12]: 0.04 OD450 | OD450 [13]: 0.06 OD450 | OD450 [14]: 0.12 OD450 | OD450 [15]: 0.2 OD450 | OD450 [16]: 2.87 OD450 | OD450 [17]: 0.04 OD450 | OD450 [18]: 0.29 OD450 | OD450 [19]: 0.1 OD450 | OD450 [20]: 1.09 OD450 | OD450 [21]: 0.05 OD450 | OD450 [22]: 0.07 OD450 | OD450 [23]: 0.04 OD450 | OD450 [24]: 0.33 OD450
B5: S009-F6-76.1 (antibody, human IgG1, kappa, V domains shown)
VH: QVQLQQSGPELVKPGASVKISCKASGYTFTDYYINWVKQRPGQGLEWIGWIFPGRGSTFYYEKFKGKATLTVDKSSSTAYMLLSSLTSEDSAVYFCARRGDSAGYEDLDYWGQGTSVTVSS
VL: NIVMTQSPKFMSMSVGERVTLSCKASENVVTYVSWYQQKPKQSPKLLIYGASKRYTGVPDRFTGSGSATDFTLTISSVQAEDLGDYHCGQSYSYPYTFGGGTKLEIKR
notes: as for B2

Second part, the binder before the results:

B1: S009-F4-127.10 (antibody, human IgG1, kappa, V domains shown)
VH: EVQLQQSGPVLVKPGASVKMSCKASGYTFTDYYMNWVKQSHGKSPEWIGVINPYNDVISYNQKFKGKATLTVDKSSSTAYMELNSLTSEDSAVYYCANYGSSYYAMDYWGQGTSVTVSS
VL: DVVMTQTPLSLSVSLGDQASISCRSSQSLVHSNGNTYLQWSLQKPGQSPNLLIYKVSNRFSGVPDRFSGSGSGTDFTLKISRVEAEDLGVYFCSQTTHVPFTFGGGTKLEIRR
notes: as for B2
OD450 [1]: 0.06 OD450 | OD450 [2]: 0.21 OD450 | OD450 [3]: 0.06 OD450 | OD450 [4]: 0.06 OD450 | OD450 [5]: 0.05 OD450 | OD450 [6]: 0.05 OD450 | OD450 [7]: 0.05 OD450 | OD450 [8]: 0.05 OD450 | OD450 [9]: 0.06 OD450 | OD450 [10]: 0.05 OD450 | OD450 [11]: 0.06 OD450 | OD450 [12]: 0.05 OD450 | OD450 [13]: 0.08 OD450 | OD450 [14]: 0.05 OD450 | OD450 [15]: 0.06 OD450 | OD450 [16]: 0.09 OD450 | OD450 [17]: 0.06 OD450 | OD450 [18]: 0.06 OD450 | OD450 [19]: 0.06 OD450 | OD450 [20]: 0.06 OD450 | OD450 [21]: 0.06 OD450 | OD450 [22]: 0.05 OD450 | OD450 [23]: 0.05 OD450 | OD450 [24]: 0.09 OD450

B3: F7.44.20 (scFv)
chain: EVQLQQSGPELVKPGASVKIPCKASGYTFTDYNMDWVKQSHGKSLEWIGDINPSTGGTIYNQKFNGKATLTEDKSASTVYMEFRSLTSDDTAVYYCARRRIGTGYFDVWGTGTTVTVSSGGGGSGGGGSGGGGSQIVLTQSPALMSASPGEKVTLTCSASSSVISSYLSWYQQKPGSSPKLLIYRTSNLASGVPARFSGSGSGTSYSLTISSMEAEDAASYFCHQWSSFPYTFGGGTKLEIK
EC50 [25]: 2.42 nM | Maximum_MFI [25]: 1600 MFI | EC50 [26]: 8.38 nM | Maximum_MFI [26]: 7040 MFI | EC50 [27]: 1.27 nM | Maximum_MFI [27]: 1450 MFI

B4: F7.44.20-VL-VH (scFv)
chain: QIVLTQSPALMSASPGEKVTLTCSASSSVISSYLSWYQQKPGSSPKLLIYRTSNLASGVPARFSGSGSGTSYSLTISSMEAEDAASYFCHQWSSFPYTFGGGTKLEIKGGGGSGGGGSGGGGSEVQLQQSGPELVKPGASVKIPCKASGYTFTDYNMDWVKQSHGKSLEWIGDINPSTGGTIYNQKFNGKATLTEDKSASTVYMEFRSLTSDDTAVYYCARRRIGTGYFDVWGTGTTVTVSS
EC50 [25]: 1.09 nM | Maximum_MFI [25]: 2920 MFI | EC50 [26]: 2.97 nM | Maximum_MFI [26]: 11100 MFI | EC50 [27]: 0.48 nM | Maximum_MFI [27]: 1850 MFI
